Experimental data from EP3757216B1.

Target: gamma-globulin preparation (The Chemo-Sero-Therapeutic Research Institute), a human antibody (human)
Assay: ELISA on immobilised human gamma-globulin, anti-6His detection; antibody binding activity after acid treatment (pH 3.0, 72 h, 30 C) divided by that without treatment

Binder	RESIDUAL ACTIVITY [%]
FcγRIIa-m11-Del1 (receptor) MGQAAAPPKAVLKLEPPWTNVLQEDSVTLTCQGARPESDSVLWFHNGNLIPTQTQLTYRFKATSNDSGEYTCQTGQTSLSDPVHLTVLSEWLVLQPPRLEFQEGETIMLRCHSWKDKPLVKVTFFQNGKSQKFSHLDPTFSIPQANHSHSGDYHCTGNIGYTSFSSKPVTITVQGGHHHHHH	89.8
FcγRIIa-m11-Del2 (receptor) MGQAAAPPKAVLKLEPPWTNVLQEDSVTLTCQGARPSDSVLWFHNGNLIPTQTQLTYRFKATSNDSGEYTCQTGQTSLSDPVHLTVLSEWLVLQPPRLEFQEGETIMLRCHSWKDKPLVKVTFFQNGKSQKFSHLDPTFSIPQANHSHSGDYHCTGNIGYTSFSSKPVTITVQGGHHHHHH	81.3
FcγRIIa-m11-Del3 (receptor) MGQAAAPPKAVLKLEPPWTNVLQEDSVTLTCQGARSDSVLWFHNGNLIPTQTQLTYRFKATSNDSGEYTCQTGQTSLSDPVHLTVLSEWLVLQPPRLEFQEGETIMLRCHSWKDKPLVKVTFFQNGKSQKFSHLDPTFSIPQANHSHSGDYHCTGNIGYTSFSSKPVTITVQGGHHHHHH	72.4
FcγRIIa-m11 (receptor) MGQAAAPPKAVLKLEPPWTNVLQEDSVTLTCQGARSPESDSVLWFHNGNLIPTQTQLTYRFKATSNDSGEYTCQTGQTSLSDPVHLTVLSEWLVLQPPRLEFQEGETIMLRCHSWKDKPLVKVTFFQNGKSQKFSHLDPTFSIPQANHSHSGDYHCTGNIGYTSFSSKPVTITVQGGHHHHHH	83.6

The next lines start with the values.

RESIDUAL ACTIVITY [%]	Binder
76.7	FcγRIIa-m11-Del4 (receptor) MGQAAAPPKAVLKLEPPWTNVLQEDSVTLTCQGASDSVLWFHNGNLIPTQTQLTYRFKATSNDSGEYTCQTGQTSLSDPVHLTVLSEWLVLQPPRLEFQEGETIMLRCHSWKDKPLVKVTFFQNGKSQKFSHLDPTFSIPQANHSHSGDYHCTGNIGYTSFSSKPVTITVQGGHHHHHH
86.5	FcγRIIa-m11-Del5 (receptor) MGQAAAPPKAVLKLEPPWTNVLQEDSVTLTCQGADSVLWFHNGNLIPTQTQLTYRFKATSNDSGEYTCQTGQTSLSDPVHLTVLSEWLVLQPPRLEFQEGETIMLRCHSWKDKPLVKVTFFQNGKSQKFSHLDPTFSIPQANHSHSGDYHCTGNIGYTSFSSKPVTITVQGGHHHHHH
25.4	FcγRIIa-m11-Del6 (receptor) MGQAAAPPKAVLKLEPPWTNVLQEDSVTLTCQGDSVLWFHNGNLIPTQTQLTYRFKATSNDSGEYTCQTGQTSLSDPVHLTVLSEWLVLQPPRLEFQEGETIMLRCHSWKDKPLVKVTFFQNGKSQKFSHLDPTFSIPQANHSHSGDYHCTGNIGYTSFSSKPVTITVQGGHHHHHH
33.3	FcγRIIa-m11-Del7 (receptor) MGQAAAPPKAVLKLEPPWTNVLQEDSVTLTCQDSVLWFHNGNLIPTQTQLTYRFKATSNDSGEYTCQTGQTSLSDPVHLTVLSEWLVLQPPRLEFQEGETIMLRCHSWKDKPLVKVTFFQNGKSQKFSHLDPTFSIPQANHSHSGDYHCTGNIGYTSFSSKPVTITVQGGHHHHHH

Target: gamma-globulin preparation (The Chemo-Sero-Therapeutic Research Institute), a human antibody (human)
Assay: ELISA on immobilised human gamma-globulin, anti-6His detection; antibody binding activity after acid treatment (pH 3.0, 24 h, 30 C) divided by that without treatment

Binder	RESIDUAL ACTIVITY [%]
FcγRIIa-m11 (receptor) MGQAAAPPKAVLKLEPPWTNVLQEDSVTLTCQGARSPESDSVLWFHNGNLIPTQTQLTYRFKATSNDSGEYTCQTGQTSLSDPVHLTVLSEWLVLQPPRLEFQEGETIMLRCHSWKDKPLVKVTFFQNGKSQKFSHLDPTFSIPQANHSHSGDYHCTGNIGYTSFSSKPVTITVQGGHHHHHH	95.3
FcγRIIa-m10A (receptor) MGQAAAPPKAVLKLEPPWTNVLQEDSVTLTCQGARSPESDSVLWFHNGNLIPTQTQPTYRFKATSNDSGEYTCQTGQTSLSDPVHLTVLSEWLVLQPPRLEFQEGETIMLRCHSWKDKPLVKVTFFQNGKSQKFSHLDPTFSIPQANHSHSGDYHCTGNIGYTSFSSKPVTITVQGGHHHHHH	77.3
FcγRIIa-m10B (receptor) MGQAAAPPKAVLKLEPPWTNVLQEDSVTLTCQGARSPESDSVQWFHNGNLIPTQTQLTYRFKATSNDSGEYTCQTGQTSLSDPVHLTVLSEWLVLQPPRLEFQEGETIMLRCHSWKDKPLVKVTFFQNGKSQKFSHLDPTFSIPQANHSHSGDYHCTGNIGYTSFSSKPVTITVQGGHHHHHH	46.9
FcγRIIa-m10C (receptor) MGQAAAPPKAVLKLEPPWINVLQEDSVTLTCQGARSPESDSVLWFHNGNLIPTQTQLTYRFKATSNDSGEYTCQTGQTSLSDPVHLTVLSEWLVLQPPRLEFQEGETIMLRCHSWKDKPLVKVTFFQNGKSQKFSHLDPTFSIPQANHSHSGDYHCTGNIGYTSFSSKPVTITVQGGHHHHHH	72.9
